# Assay results published in paper PMC8244358.
# Tests used:
# [1] = biological target: Cfl1 (Cif-like epoxide hydrolase 1) from Burkholderia cenocepacia strain J2315 / K56-2 (Burkholderia cenocepacia strain K56-2 (identical to strain J2315)); test: crystal structure; hanging drop vapor diffusion; X-ray, 2.2 Å; molecular replacement with a Cif monomer
# [2] = biological target: Cfl2 (Cif-like epoxide hydrolase 2) from Burkholderia cenocepacia strain HI2424 (Burkholderia cenocepacia strain HI2424); test: as above
Substance,stoichiometry N [1],stoichiometry N [2]
Cfl1 (Cif-like epoxide hydrolase 1) from Burkholderia cenocepacia strain J2315 / K56-2 (enzyme),8,–
Cfl2 (Cif-like epoxide hydrolase 2) from Burkholderia cenocepacia strain HI2424 (enzyme),–,10
